Experimental data from the supplement of paper PMC5998384.

What was measured:
[1] = test system: HeLa Kyoto; test: solubility change mitosis vs G1/S (difference of NP-40 vs SDS log2 ratios) (log2 ratio difference); higher = more soluble in mitosis
[2] = test system: HeLa Kyoto; test: melting temperature (median over replicates), in situ; higher = more thermally stable
[3] = test system: HeLa Kyoto; test: thermal stability score vs G1/S (z-score of summed log2 fold changes over temperatures); higher = more thermally stable than in G1/S
[4] = test system: HeLa Kyoto; test: solubility in G1/S (NP-40 vs SDS abundance) (log2 ratio); higher = more soluble; conditions: cell cycle stage: G1/S
[5] = cell cycle stage: early G1 (4.5 h after nocodazole release)
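Wherever melting temperature (median over replicates), in situ is given: HeLa Kyoto cells synchronized by double thymidine or nocodazole block, proteins quantified by TMT10plex mass spectrometry, three independent biological replicates.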
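Wherever solubility change mitosis vs G1/S (difference of NP-40 vs SDS log2 ratios) is given: synchronized HeLa Kyoto cells (double thymidine block for G1/S, nocodazole release for mitosis), protein amounts in NP-40 versus SDS lysates quantified by mass spectrometry, three biological replicates.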
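Wherever solubility in G1/S (NP-40 vs SDS abundance) is given: HeLa Kyoto cells arrested at G1/S by double thymidine block, proteins quantified by TMT10plex mass spectrometry in mild NP-40 versus SDS extracts, three biological replicates.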
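Wherever thermal stability score vs G1/S (z-score of summed log2 fold changes over temperatures) is given: synchronized HeLa Kyoto cells, proteins quantified by TMT10plex mass spectrometry, three biological replicates, mitosis taken 0.5 h after nocodazole release, G1/S directly after double thymidine block.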

Sequence | solubility change mitosis (log2) [1] | melting temperature ([2]; cell cycle stage: G1/S) | melting temperature ([2]; cell cycle stage: mitosis) | thermal stability score [3, 5] | thermal stability score ([3]; cell cycle stage: mitosis) | solubility in G1/S (log2) [4]
MTDAAVSFAKDFLAGGVAAAISKTAVAPIERVKLLLQVQHASKQITADKQYKGIIDCVVRIPKEQGVLSFWRGNLANVIRYFPTQALNFAFKDKYKQIFLGGVDKRTQFWLYFAGNLASGGAAGATSLCFVYPLDFARTRLAADVGKAGAEREFRGLGDCLVKIYKSDGIKGLYQGFNVSVQGIIIYRAAYFGIYDTAKGMLPDPKNTHIVISWMIAQTVTAVAGLTSYPFDTVRRRMMMQSGRKGTDIMYTGTLDCWRKIARDEGGKAFFKGAWSNVLRGMGGAFVLVLYDEIKKYT [SLC25A5] | -0.12 | 56.9 °C | 55.9 °C | -2.25 | -3.52 | -0.308
MTEADVNPKAYPLADAHLTKKLLDLVQQSCNYKQLRKGANEATKTLNRGISEFIVMAADAEPLEIILHLPLLCEDKNVPYVFVRSKQALGRACGVSRPVIACSVTIKEGSQLKQQIQSIQQSIERLLV [SNU13] | 1.04 | 54.6 °C | 53 °C | -3.84 | -7.97 | -0.625
MTECFLPPTSSPSEHRRVEHGSGLTRTPSSEEISPTKFPGLYRTGEPSPPHDILHEPPDVVSDDEKDHGKKKGKFKKKEKRTEGYAAFQEDSSGDEAESPSKMKRSKGIHVFKKPSFSKKKEKDFKIKEKPKEEKHKEEKHKEEKHKEKKSKDLTAADVVKQWKEKKKKKKPIQEPEVPQIDVPNLKPIFGIPLADAVERTMMYDGIRLPAVFRECIDYVEKYGMKCEGIYRVSGIKSKVDELKAAYDREESTNLEDYEPNTVASLLKQYLRDLPENLLTKELMPRFEEACGRTTETEKVQEFQRLLKELPECNYLLISWLIVHMDHVIAKELETKMNIQNISIVLSPTVQISNRVLYVFFTHVQELFGNVVLKQVMKPLRWSNMATMPTLPETQAGIKEEIRRQEFLLNCLHRDLQGGIKDLSKEERLWEVQRILTALKRKLREAKRQECETKIAQEIASLSKEDVSKEEMNENEEVINILLAQENEILTEQEELLAMEQFLRRQIASEKEEIERLRAEIAEIQSRQQHGRSETEEYSSESESESEDEEELQIILEDLQRQNEELEIKNNHLNQAIHEEREAIIELRVQLRLLQMQRAKAEQQAQEDEEPEWRGGAVQPPRDGVLEPKAAKEQPKAGKEPAKPSPSRDRKETSI [RALBP1] | 0.12 | 47.8 °C | 50.4 °C | 0.156 | 0.441 | 0.0284
MTERFDCHHCNESLFGKKYILREESPYCVVCFETLFANTCEECGKPIGCDCKDLSYKDRHWHEACFHCSQCRNSLVDKPFAAKEDQLLCTDCYSNEYSSKCQECKKTIMPGTRKMEYKGSSWHETCFICHRCQQPIGTKSFIPKDNQNFCVPCYEKQHAMQCVQCKKPITTGGVTYREQPWHKECFVCTACRKQLSGQRFTARDDFAYCLNCFCDLYAKKCAGCTNPISGLGGTKYISFEERQWHNDCFNCKKCSLSLVGRGFLTERDDILCPDCGKDI [FHL2] | -0.0906 | 52 °C | 51.9 °C | -1.09 | -1.97 | -0.304
MTGNAGEWCLMESDPGVFTELIKGFGCRGAQVEEIWSLEPENFEKLKPVHGLIFLFKWQPGEEPAGSVVQDSRLDTIFFAKQVINNACATQAIVSVLLNCTHQDVHLGETLSEFKEFSQSFDAAMKGLALSNSDVIRQVHNSFARQQMFEFDTKTSAKEEDAFHFVSYVPVNGRLYELDGLREGPIDLGACNQDDWISAVRPVIEKRIQKYSEGEIRFNLMAIVSDRKMIYEQKIAELQRQLAEEEPMDTDQGNSMLSAIQSEVAKNQMLIEEEVQKLKRYKIENIRRKHNYLPFIMELLKTLAEHQQLIPLVEKAKEKQNAKKAQETK [UCHL5] | -0.0948 | 48.7 °C | 48.9 °C | 1.19 | 2.51 | 0.533
MTGQGQSASGSSAWSTVFRHVRYENLIAGVSGGVLSNLALHPLDLVKIRFAVSDGLELRPKYNGILHCLTTIWKLDGLRGLYQGVTPNIWGAGLSWGLYFFFYNAIKSYKTEGRAERLEATEYLVSAAEAGAMTLCITNPLWVTKTRLMLQYDAVVNSPHRQYKGMFDTLVKIYKYEGVRGLYKGFVPGLFGTSHGALQFMAYELLKLKYNQHINRLPEAQLSTVEYISVAALSKIFAVAATYPYQVVRARLQDQHMFYSGVIDVITKTWRKEGVGGFYKGIAPNLIRVTPACCITFVVYENVSHFLLDLREKRK [SLC25A32] | -0.12 | 56.8 °C | 56.7 °C | -0.577 | 0.155 | -0.199
